Measured values: PMC9147068, “The Response Regulator RegA Is a Copper Binding Protein That Covalently Dimerizes When Exposed to Oxygen” (Microorganisms, 2022)

B1: RegA (response regulator RegA of Rhodobacter capsulatus), wild type, tagless (natural protein, UniProt P42508 1-184, looked up)
chain: MAEEEFAELGSDRSLLLVDDDNAFLTRLARAMEKRGFQTEIAETVSAGKAIVQNRAPAYAVIDLRLEDGNGLEVVEALRERRPEARIVVLTGYGAIATAVAAVKMGATDYLSKPADANDITNALLAKGEALPPPPENPMSADRVRWEHIQRVYELCDRNVSETARRLNMHRRTLQRILAKRSPR
notes: RegA, response regulator of the RegB/RegA two-component system, Rhodobacter capsulatus; wild-type codon at residue 95 (made from the RegA* overexpression vector of Du et al. 1998); a single cysteine, Cys156, in the tryptic peptide VYELCDR; The dimer formed with Cu2+ and O2 is joined by an intermolecular disulfide bond between Cys156 of two chains; also called apo-RegA; RegA monomer

Key:
[1] = test system: RegA, Cu2+-stimulated disulfide-linked dimer (unphosphorylated) (Rhodobacter capsulatus); assay: DNase I footprinting; details: 20 mM Tris-HCl pH 8.0, 2 mM MgCl2, 0.5 mM CaCl2, 0.1 mg/mL BSA, 50 nM DNA probe, 20 uL, 15 min at room temperature
[2] = biological target: the molecule itself; assay: non-reducing SDS-PAGE; monomeric RegA loaded with Cu2+ by buffer exchange aerobically (20 mM Tris-HCl pH 8.0, 250 mM NaCl), run at once on a non-reducing gel without DTT; time course in air from one minute

Molecule	Kd [1] [nM]	stoichiometry N [2]
ccoN promoter fragment (299 bp)	1000	–
B1	–	2
